This note sets out measurements from publication PMC533864, “Selective inhibition of c-Myb DNA-binding by RNA polymers”.

One data set concerns the target c-Myb NR1R2R3 (Homo sapiens, UniProt P10242 1-192). Put plainly: EMSA; 20 mM Tris-HCl pH 8.0, 0.1 mM EDTA, 10% glycerol, 0.1 mM DTT, 0.005% Triton X-100, 50 mM NaCl, RNAguard 6-20 U, 20 uL, 25 C, 15 min. The following applies: protein: recombinant; label: 32P. A general note: In EMSA bound probe runs differently from free probe, usually more slowly.
In another data set the target is c-Myb R2R3 (Homo sapiens, UniProt P10242 89-192). The data set is described as above. The following applies: protein: recombinant; label: 32P.
Chain of c-Myb R2R3 (P10242 89-192): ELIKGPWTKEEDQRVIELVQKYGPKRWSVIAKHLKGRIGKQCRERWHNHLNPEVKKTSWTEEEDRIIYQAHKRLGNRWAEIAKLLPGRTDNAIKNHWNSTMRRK

Chain of c-Myb NR1R2R3 (P10242 1-192): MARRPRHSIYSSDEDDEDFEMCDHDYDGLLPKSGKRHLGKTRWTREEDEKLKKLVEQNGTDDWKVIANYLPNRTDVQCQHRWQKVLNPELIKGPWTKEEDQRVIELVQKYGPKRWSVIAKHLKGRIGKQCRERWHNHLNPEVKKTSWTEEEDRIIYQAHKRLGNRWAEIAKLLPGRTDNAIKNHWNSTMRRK

B1: MRE probe (mim-1 promoter) (dsDNA)
DNA 1: GCATTATAACGGTTTTTTAGCGC
DNA 2: GCGCTAAAAAACCGTTATAATGC
Turning to B1, the binding result in the data set with c-Myb NR1R2R3 and in the data set with c-Myb R2R3 was “binds” in each case.
